This is an account of results in patent publication US20130245238A1 (Bristol-Myers Squibb, published 2013).

B1: WS-LI1 binder having the sequence of SEQ ID NO: 5 (designed binder)
chain: MGVSDVPRDLEVVAATPTSLLISWDAPAVTVRYYRITYGEYHEHYHSPGFSQKYHYEQEFTVPGSKSTATISGLKPGVDYTITVYAVTGHKHYHYYYYYHHHSSKPISINYRTEIDKPSQ
notes: Modified ^10Fn3 domain (CD and FG loops)
B2: WS-LI1 binder having the sequence of SEQ ID NO: 4 (designed binder)
chain: MGVSDVPRDLEVVAATPTSLLISWDAPAVTVRYYRITYGEHVADHFDHNQEFTVPGSKSTATISGLKPGVDYTITVYAVTYQFQDPEEHYYYHFYDSSSKPISINYRTEIDKPSQ
notes: as for B1
B3: WS-LI1 binder having the sequence of SEQ ID NO: 3 (designed binder)
chain: MGVSDVPRDLEVVAATPTSLLISWDAPAVTVRYYRITYGEQHSKYPHQEFTVPGSKSTATISGLKPGVDYTITVYAVTIQPQDPEQDYQYHYYETSSKPISINYRTEIDKPSQ
notes: as for B1
B4: non-binding control ^10Fn3 molecule (SEQ ID NO: 6 with an additional MG at the N-terminus and RGD changed to RGE) (designed binder)
chain: MGVSDVPRDLEVVAATPTSLLISWDAPAVTVRYYRITYGETGGNSPVQEFTVPGSKSTATISGLKPGVDYTITVYAVTGRGESPASSKPISINYRT
B5: Adnectin-4 (designed binder)
chain: MASTSGVSDVPRDLEVVAATPTSLLISWDAPAVTVHSYYITYQELQHHSVPQGFQVPGSKSTATISGLKPGVAYQIAVYAFTGPGLPPSDAPPIVIYYRTEGSGSHHHHHH
B6: Adnectin-8 (designed binder)
chain: MGVSDVPRDLEVVAATPTSLLISWSQPGRYVKYYRITYGETGGNSPVQEFTVPNDTYTATISGLKPGVDYTITVYAVYGKYGPYYGYDPISINYRTEIDKPSQHHHHHH
B7: Adnectin-5 (designed binder)
chain: MGVSDVPRDLEVVAATPTSLLISWKYPYETISYYRITYGETGGNSPVQEFTVPYYRSTATISGLKPGVDYTITVYAVEASAPYSDGGSPISINYRTEIDKPSQHHHHHH
B8: Adnectin-6 (designed binder)
chain: MGVSDVPRDLEVVAATPTSLLISWSRPKGSIKYYRITYGETGGNSPVQEFTVPNSQYTATISGLKPGVDYTITVYAVYGYPYQEPHYYPISINYRTEIDKPSQHHHHHH
B9: Adnectin-1 (designed binder)
chain: MASTSGSTHYYKGTADLEVVAATPTSLLISWPPPYYVEGVTVFRITYGETGGNSPVQEFTVPYWTETATISGLKPGVDYTITVYAEMYPGSPWAGQVMDIQPISINYRTEGSGSHHHHHH
notes: Isolated from an NP1 library; purified by Ni-agarose
B10: Adnectin-2 (designed binder)
chain: MASTSGVSDVPRDLEVVAATPTSLLISWDAPAVTVNNYRITYQPLLQGSSIQHFDVPGSKSTATISGLKPGVGYQITVYASTYTHSKAYYSLPISIYYRTEGSGSHHHHHH
B11: Adnectin-7 (designed binder)
chain: MGVSDVPRDLEVVTATPTSLLISWDGPKYYVKYYRITYGETGGNSPVQEFTVPRTDHTATISGLKPGVDYTITVYAVKGQYGPYYGSRPISINYRTEIDKPSQHHHHHH
B12: Adnectin-3 (designed binder)
chain: MASTSGVSDVPRDLEVVAATPTSLLISWDAPAVPVSKYVIYYWPGALISSMQAFKVPGSKSTATISGLKPGVLYSIVVDALTGDGQGSYVWDPITITYRTEGSGSHHHHHH
B13: WS-LI1 binder having the sequence of SEQ ID NO: 45 (designed binder)
chain: MGVSDVPRDLEVVAATPTSLLISWDAPAVTVRYYRITYGEYHAFFASNGKYYFYIQEFTVPGSKSTATISGLKPGVDYTITVYAVTDDTVHHGDSNYHSSKPISINYRTEIDKPSQ
notes: as for B1
B14: WS-LI1 binder having the sequence of SEQ ID NO: 47 (designed binder)
chain: MGVSDVPRDLEVVAATPTSLLISWDAPAVTVRYYRITYGEFSQFVHSDGEYYQEYQEFTVPGSKSTATISGLKPGVDYTITVYAVTGQYDQDDEPSSKPISINYRTEIDKPSQ
notes: as for B1
B15: WS-LI1 binder having the sequence of SEQ ID NO: 46 (designed binder)
chain: MGVSDVPRDLEVVAATPTSLLISWDAPAVTVRYYRITYGEYSSFFQHQGQYYHYIQEFTVPGSKSTATISGLKPGVDYTITVYAVTQHEHSQDSSKPISINYRTEIDKPSQ
notes: as for B1
B16: scaffold region peptide of SEQ ID NO: 53 (peptide)
peptide: MGEVVAATPTSLLIS
notes: Synthetic peptide; also called wildtype scaffold region segment N-terminal to the BC loop
B17: BC loop peptide (SEQ ID NO: 58) (peptide)
peptide: PTSLLISWDAPAVTVRYYRITYG
notes: Synthetic peptide; also called BC loop region cluster
B18: scaffold region peptide of SEQ ID NO: 54 (peptide)
peptide: PHFPTRYYRITYGETGGNS
notes: Synthetic peptide from an engineered ^10Fn3 domain; also called modified scaffold region segment C-terminal to the BC loop

For the first experiment, the target named is T1, murine DLL4 (murine, UniProt Q9JI71 28-525, limits assumed).
T1 construct: Soluble protein used at 20 nM; construct and source are not described; also called delta-like protein 4
The experiment in a line: competitive Biacore; 2 µM binder equilibrated with 20 nM murine DLL4, flowed over immobilised Notch1-Fc. (SPR reads the build-up and loss of mass on a sensor chip optically.)
Regarding B1, the “% competition of the interaction between Notch1 and murine DLL4” value came to 75%.
Still for that read-out and setting: for B2 the value was 100%.
Turning to B3, the “% competition of the interaction between Notch1 and murine DLL4” value came out at 100%.

The target of another experiment is T2, Recombinant human integrin αVβ3 (R&D Systems) (human, UniProt P06756 31-992; P05106 27-718).
T2 construct: Amine-coupled on a CM7 chip; also called integrin AlphaV-Beta3
The experiment is described as follows: SPR (Biacore), integrin amine-coupled to a CM7 chip, binding RU at the end of the injection.
Regarding B4, the binding result is given as “no binding (tested: 5 µM)”.

The target of a further experiment is T3, human PXR-GST (Invitrogen) (human, UniProt O75469 111-434, limits assumed).
T3 construct: Captured on an anti-GST antibody chip; the whole natural protein is named; also called GST-PXR; GST-tagged PXR; not shown: GST tag
T3 sequence (looked up): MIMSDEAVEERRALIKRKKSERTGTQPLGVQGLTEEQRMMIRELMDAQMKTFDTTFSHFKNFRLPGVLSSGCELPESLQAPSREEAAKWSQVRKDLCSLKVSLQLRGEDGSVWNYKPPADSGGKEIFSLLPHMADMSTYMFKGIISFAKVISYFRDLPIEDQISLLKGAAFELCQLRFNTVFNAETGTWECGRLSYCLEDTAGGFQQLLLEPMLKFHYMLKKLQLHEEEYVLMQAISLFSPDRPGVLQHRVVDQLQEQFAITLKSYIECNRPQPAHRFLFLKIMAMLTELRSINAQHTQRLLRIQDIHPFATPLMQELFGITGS
The experiment is described as follows: SPR, Biacore T100; human PXR-GST captured on anti-GST antibody chip.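 Note: binding rate constants and Kd derived from kinetic cycles using the Biacore T100 analysis software.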
On to B5, for which the Kd turned out to be 7.8 nM, the koff came to 0.000168 s⁻¹ and the kon amounted to 21500 M⁻¹ s⁻¹.
The corresponding values for B6 are 4.4 nM, 0.000182 s⁻¹ and 41700 M⁻¹ s⁻¹.
Taken in the same sequence, the figures for B7 were 5.4 nM, 0.0027 s⁻¹ and 509000 M⁻¹ s⁻¹.
The corresponding values for B8 are 1.9 nM, 0.00126 s⁻¹ and 680000 M⁻¹ s⁻¹.
On to B9, for which the Kd turned out to be 11.4 nM, the koff was 0.00119 s⁻¹ and the kon turned out to be 104000 M⁻¹ s⁻¹.
As for B10, the Kd stood at 97.8 nM, the koff is 0.00458 s⁻¹ and the kon was roughly 46800 M⁻¹ s⁻¹.
The corresponding values for B11 are 0.31 nM, 8.82e-05 s⁻¹ and 288000 M⁻¹ s⁻¹.
Molecule B12 registered a Kd of 2.5 nM, a koff of 0.000378 s⁻¹ and a kon of 162000 M⁻¹ s⁻¹.

The next experiment deals with T4, biotinylated murine IL-17 (murine, UniProt Q62386 26-158, limits assumed, biotinylated (site not stated)).
T4 construct: Used at 2.5 nM in the Alphascreen assay; also called interleukin 17
T4 sequence (looked up): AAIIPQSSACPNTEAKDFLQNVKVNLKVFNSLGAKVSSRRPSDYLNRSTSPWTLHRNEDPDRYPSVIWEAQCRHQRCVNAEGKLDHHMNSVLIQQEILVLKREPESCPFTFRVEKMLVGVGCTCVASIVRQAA
The experiment is described as follows: competitive Alphascreen; 1 µM binder, biotinylated murine IL-17 against murine IL-17RA-Fc. On the technique in general: Alpha assays give light when donor and acceptor beads are brought close together.
Consider B13, for which the “% inhibition of the Alphascreen signal” value came to 83%.
On the same count and under the same terms, as for B14, the figure is 81%; as for B15, 94%.

A further experiment has as its target HLA allele molecule DRB*0101 (human). The experiment is described as follows: HLA class II competition binding assay: inhibition of the europium-labeled control peptide, time-resolved fluorescence.
In the case of B16, the IC50 was determined as 6 µM.

In a further experiment the target is HLA allele molecule DRB*1501 (human). The experiment is described as above.
With B17, the IC50 was less than 1 µM.
The same measure, in the same setting: as for B18, the figure is 50 µM; as for B16, less than 0.1 µM.

What is called Kd is the equilibrium constant for the complex coming apart. Read a high Kd as weaker binding. The term koff denotes the first-order rate constant of dissociation. Read a low koff as a long-lived complex. A word on the kon: it is the second-order rate constant of association. A low value points to slower complex formation. One may read the IC50 as the concentration at which inhibition is half-maximal. Low values mean higher potency, high ones lower potency.
